According to IntAct's records for PubMed 17267444:

Assays:
scar2_arath SCAR2 = scar2_arath SCAR2 (UniProt Q5XPJ9)
scar1_arath SCAR1 = scar1_arath SCAR1 (UniProt Q6AWX6)
scarl_arath WAVE5 = scarl_arath WAVE5 (UniProt Q5XPK0)
spk1_arath SPK1 = spk1_arath SPK1 (UniProt Q8SAB7)
Sequence of spk1_arath SPK1 (Q8SAB7 whole entry): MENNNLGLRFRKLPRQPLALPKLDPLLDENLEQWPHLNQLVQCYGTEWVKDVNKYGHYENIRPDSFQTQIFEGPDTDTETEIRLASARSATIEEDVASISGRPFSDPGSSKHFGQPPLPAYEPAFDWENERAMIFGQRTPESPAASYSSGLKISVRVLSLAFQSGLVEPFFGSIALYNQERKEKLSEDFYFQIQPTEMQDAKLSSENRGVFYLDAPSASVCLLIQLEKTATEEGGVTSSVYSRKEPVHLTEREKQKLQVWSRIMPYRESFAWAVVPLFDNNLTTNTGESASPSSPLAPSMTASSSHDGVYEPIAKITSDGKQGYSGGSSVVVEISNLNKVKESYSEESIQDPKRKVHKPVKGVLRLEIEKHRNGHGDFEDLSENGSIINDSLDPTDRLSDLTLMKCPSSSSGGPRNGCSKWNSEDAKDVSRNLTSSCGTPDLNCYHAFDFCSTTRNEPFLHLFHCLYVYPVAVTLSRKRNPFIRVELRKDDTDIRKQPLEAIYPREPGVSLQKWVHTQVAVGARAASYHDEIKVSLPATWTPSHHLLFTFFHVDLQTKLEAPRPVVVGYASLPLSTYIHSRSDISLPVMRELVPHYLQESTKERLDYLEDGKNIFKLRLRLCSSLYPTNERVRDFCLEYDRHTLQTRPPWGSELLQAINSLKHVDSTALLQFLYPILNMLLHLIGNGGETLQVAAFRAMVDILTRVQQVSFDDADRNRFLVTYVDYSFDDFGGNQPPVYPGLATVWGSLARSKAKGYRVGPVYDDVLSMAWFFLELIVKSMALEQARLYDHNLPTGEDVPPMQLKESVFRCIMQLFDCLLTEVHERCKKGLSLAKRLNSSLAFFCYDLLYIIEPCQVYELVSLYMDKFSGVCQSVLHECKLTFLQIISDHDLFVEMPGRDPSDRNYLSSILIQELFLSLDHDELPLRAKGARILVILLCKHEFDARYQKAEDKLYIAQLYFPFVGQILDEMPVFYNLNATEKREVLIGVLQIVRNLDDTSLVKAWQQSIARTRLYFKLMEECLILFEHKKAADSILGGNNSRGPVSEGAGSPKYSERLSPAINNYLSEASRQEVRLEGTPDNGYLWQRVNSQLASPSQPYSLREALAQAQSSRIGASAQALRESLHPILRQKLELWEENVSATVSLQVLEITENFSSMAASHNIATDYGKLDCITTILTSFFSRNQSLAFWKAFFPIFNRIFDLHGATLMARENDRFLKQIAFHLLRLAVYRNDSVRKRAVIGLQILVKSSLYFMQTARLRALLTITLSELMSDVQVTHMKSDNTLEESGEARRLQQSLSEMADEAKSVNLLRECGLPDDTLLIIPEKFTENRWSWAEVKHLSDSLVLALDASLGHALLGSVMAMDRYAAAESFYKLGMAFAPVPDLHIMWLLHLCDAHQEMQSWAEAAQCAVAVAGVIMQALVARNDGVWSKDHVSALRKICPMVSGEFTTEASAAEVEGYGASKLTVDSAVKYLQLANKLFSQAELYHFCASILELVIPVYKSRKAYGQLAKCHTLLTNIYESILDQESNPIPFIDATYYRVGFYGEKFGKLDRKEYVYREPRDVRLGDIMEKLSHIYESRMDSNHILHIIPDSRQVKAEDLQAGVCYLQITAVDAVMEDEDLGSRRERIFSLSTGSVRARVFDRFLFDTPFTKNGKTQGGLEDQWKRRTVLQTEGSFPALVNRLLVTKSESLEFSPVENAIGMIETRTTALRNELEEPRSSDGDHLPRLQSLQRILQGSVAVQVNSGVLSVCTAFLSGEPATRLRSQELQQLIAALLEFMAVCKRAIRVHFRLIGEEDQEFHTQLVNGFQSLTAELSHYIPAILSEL

Sequence of Rac-like GTP-binding protein ARAC9 (Arabidopsis thaliana (Mouse-ear cress)), Q9XGU0 G27V (Q9XGU0 whole entry G27V): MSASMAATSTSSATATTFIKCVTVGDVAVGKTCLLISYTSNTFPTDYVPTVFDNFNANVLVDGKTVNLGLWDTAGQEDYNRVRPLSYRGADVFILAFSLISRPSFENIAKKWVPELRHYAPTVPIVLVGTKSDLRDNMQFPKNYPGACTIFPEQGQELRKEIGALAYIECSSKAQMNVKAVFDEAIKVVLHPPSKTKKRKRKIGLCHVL
Sequence of scarl_arath WAVE5 (Q5XPK0 whole entry): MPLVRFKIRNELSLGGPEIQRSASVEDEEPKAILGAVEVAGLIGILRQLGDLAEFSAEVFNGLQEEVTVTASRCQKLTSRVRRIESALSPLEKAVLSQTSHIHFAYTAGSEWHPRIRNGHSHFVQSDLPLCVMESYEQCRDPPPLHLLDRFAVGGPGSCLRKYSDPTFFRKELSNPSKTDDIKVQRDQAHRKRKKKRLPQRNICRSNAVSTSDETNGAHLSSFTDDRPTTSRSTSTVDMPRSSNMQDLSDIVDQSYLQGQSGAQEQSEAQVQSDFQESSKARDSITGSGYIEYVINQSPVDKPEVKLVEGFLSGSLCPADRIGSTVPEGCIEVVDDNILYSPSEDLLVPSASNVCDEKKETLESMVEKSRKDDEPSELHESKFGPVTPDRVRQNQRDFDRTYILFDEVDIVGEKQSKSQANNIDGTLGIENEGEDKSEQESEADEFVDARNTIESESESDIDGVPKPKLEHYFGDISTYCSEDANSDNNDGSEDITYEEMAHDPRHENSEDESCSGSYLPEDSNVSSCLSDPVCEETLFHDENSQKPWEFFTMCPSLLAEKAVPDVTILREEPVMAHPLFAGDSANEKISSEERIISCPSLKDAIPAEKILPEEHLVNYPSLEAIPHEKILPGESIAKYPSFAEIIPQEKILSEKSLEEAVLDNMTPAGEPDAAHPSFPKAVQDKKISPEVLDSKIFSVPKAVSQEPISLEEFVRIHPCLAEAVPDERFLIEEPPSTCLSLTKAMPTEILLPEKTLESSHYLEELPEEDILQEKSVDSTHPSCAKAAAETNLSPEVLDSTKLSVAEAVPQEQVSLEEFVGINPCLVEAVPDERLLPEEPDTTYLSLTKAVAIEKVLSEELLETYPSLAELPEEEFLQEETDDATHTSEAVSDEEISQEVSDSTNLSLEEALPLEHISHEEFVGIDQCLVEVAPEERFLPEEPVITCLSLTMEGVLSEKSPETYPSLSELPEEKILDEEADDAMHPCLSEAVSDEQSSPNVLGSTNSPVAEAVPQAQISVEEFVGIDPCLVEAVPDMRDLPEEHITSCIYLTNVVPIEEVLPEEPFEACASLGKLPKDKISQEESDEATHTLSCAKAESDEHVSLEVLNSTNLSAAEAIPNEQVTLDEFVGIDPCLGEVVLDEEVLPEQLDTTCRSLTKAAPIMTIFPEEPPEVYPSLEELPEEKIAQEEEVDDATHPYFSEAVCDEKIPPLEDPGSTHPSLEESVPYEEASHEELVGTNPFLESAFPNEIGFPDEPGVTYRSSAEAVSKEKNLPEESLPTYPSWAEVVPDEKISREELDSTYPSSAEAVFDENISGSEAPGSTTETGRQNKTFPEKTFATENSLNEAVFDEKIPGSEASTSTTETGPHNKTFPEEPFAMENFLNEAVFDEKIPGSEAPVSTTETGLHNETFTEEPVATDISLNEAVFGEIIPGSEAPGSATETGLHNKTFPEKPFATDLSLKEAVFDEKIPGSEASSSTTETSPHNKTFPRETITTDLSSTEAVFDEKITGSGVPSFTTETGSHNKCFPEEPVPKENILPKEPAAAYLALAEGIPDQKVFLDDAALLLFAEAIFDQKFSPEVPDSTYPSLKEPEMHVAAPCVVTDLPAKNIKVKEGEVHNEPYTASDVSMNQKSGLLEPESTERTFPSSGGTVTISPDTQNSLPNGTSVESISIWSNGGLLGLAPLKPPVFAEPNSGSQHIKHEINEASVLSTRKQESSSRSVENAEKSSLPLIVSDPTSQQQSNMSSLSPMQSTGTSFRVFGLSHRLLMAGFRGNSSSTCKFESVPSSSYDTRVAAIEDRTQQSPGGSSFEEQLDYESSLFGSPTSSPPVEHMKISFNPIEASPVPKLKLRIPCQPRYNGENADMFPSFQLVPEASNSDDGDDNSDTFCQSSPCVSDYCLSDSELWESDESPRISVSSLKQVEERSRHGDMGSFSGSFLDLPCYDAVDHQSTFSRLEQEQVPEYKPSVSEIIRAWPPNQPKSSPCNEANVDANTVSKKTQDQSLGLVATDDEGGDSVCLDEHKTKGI
Sequence of scar1_arath SCAR1 (Q6AWX6 whole entry): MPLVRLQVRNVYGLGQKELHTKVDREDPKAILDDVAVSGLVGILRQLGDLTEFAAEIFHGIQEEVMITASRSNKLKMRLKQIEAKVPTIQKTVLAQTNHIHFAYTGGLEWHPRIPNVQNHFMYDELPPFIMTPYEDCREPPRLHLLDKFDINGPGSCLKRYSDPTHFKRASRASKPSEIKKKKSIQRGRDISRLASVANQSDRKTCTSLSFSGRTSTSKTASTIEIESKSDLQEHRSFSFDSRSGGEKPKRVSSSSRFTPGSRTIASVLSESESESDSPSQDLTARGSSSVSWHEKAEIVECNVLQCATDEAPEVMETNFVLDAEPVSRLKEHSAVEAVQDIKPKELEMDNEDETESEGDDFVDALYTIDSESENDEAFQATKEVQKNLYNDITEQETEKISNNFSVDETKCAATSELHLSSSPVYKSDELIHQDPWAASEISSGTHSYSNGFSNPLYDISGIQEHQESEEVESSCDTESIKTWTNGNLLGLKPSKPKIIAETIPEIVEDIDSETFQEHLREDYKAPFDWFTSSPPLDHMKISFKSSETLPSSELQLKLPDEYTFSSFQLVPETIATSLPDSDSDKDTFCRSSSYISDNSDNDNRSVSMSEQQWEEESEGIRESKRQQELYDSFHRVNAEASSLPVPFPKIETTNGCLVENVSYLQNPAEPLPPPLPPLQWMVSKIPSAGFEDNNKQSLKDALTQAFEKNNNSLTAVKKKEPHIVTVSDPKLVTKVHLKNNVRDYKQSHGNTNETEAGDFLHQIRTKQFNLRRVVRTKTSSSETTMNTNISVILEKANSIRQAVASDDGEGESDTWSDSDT
Sequence of Rac-like GTP-binding protein ARAC2 (Arabidopsis thaliana (Mouse-ear cress)), Q38903 T20D (Q38903 whole entry T20D): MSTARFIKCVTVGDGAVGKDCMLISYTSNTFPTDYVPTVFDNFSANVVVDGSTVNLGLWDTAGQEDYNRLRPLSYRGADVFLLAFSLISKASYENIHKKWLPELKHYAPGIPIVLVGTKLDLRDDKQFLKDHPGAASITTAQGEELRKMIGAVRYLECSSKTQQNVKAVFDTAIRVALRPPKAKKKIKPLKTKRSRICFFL

effect of a mutation on the interaction (scar2_arath SCAR2)	effect of a mutation on the interaction (scar1_arath SCAR1)	effect of a mutation on the interaction (scarl_arath WAVE5)	effect of a mutation on the interaction (spk1_arath SPK1)	Substance
disrupting interaction	–	–	–	Rac-like GTP-binding protein ARAC2 (Arabidopsis thaliana (Mouse-ear cress)), Q38903 T20D
–	disrupting interaction	disrupting interaction	disrupting interaction	Rac-like GTP-binding protein ARAC9 (Arabidopsis thaliana (Mouse-ear cress)), Q9XGU0 G27V
